Measurements reported in patent US20220411488A1 (APHARMA, published 2022).
Changes are numbered by the printed parent chain.

B1: monoclonal antibody 9E1 against ITIH1 (antibody, V domains shown)
VH: EVQLQQSGTVLARPGASVKMSCRASGYSFTSYWMHWVKQRPGQGLEWIGSIYPGNTDTNYNQKFKGKAKLTAVTSASTAYMELSSLTNEDSAVYYCTRYGTSEGFAYWGQGTLVTVSA
VL: DIVMTQSPASLAVSLGQRATISCRASQSVSTSSYSYMHWYQQKPGQPPKLLIKYASNLESGVPARFSGSGSGTDFTLNIHPVEEEDSATYYCQHSWEIPPTFGGGTKLEIK
notes: Mouse (BALB/c) hybridoma monoclonal antibody made by AbClon Inc; also called antibody clone 9E1; 9E1 clonal antibody
B2: monoclonal antibody 5D6 against ITIH1 (antibody, V domains shown)
VH: EVQLQQSGAELVKPGTSVKMSCKASGYTFTSYWMHWVRQRPGQGLEWIGDIYPGTDSTNYNEKFKSKATLTVDTSSSTAYMQLSSLTSEDSAVYYCSRSGDYYDYWGQGTTVTVSS
VL: B1 VL with M4L, S87T, P100W
notes: Mouse (BALB/c) hybridoma monoclonal antibody made by AbClon Inc; also called antibody clone 5D6; 5D6 clonal antibody

Target: T1, human ITIH-1 antigen (inter-alpha trypsin inhibitor heavy chain 1) (human)
T1 construct: Produced in HEK293F cells and purified; used as the immunogen; also called SHAP
T1 sequence (chain, as listed by the source limits assumed): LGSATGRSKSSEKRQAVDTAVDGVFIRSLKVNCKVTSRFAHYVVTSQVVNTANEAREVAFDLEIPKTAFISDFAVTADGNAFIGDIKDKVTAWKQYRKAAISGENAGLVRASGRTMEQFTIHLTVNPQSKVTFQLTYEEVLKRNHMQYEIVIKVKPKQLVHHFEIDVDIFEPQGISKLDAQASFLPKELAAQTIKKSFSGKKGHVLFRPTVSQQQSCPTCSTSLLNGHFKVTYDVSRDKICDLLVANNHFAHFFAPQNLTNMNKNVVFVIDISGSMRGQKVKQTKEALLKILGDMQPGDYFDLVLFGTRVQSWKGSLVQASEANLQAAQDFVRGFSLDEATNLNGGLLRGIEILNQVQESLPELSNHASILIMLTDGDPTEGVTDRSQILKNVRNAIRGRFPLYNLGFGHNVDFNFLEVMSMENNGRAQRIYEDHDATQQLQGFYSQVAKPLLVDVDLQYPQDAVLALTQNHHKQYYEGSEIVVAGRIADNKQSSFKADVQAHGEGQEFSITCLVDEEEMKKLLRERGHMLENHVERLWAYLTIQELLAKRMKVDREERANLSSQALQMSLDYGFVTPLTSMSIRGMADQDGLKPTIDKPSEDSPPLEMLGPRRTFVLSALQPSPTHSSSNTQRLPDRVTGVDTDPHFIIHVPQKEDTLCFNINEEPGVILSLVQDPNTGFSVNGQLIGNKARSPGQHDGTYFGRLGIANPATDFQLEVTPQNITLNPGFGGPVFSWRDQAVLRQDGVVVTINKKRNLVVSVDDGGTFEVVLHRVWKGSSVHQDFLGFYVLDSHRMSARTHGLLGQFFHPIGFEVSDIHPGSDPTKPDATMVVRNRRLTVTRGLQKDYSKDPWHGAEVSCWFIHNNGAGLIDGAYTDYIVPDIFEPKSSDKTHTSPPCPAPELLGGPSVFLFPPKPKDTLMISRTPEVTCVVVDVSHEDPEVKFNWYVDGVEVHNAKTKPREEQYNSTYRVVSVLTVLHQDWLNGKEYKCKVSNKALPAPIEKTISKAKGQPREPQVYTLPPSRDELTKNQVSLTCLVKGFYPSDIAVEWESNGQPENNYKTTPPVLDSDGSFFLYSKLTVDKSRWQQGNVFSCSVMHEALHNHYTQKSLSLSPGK
Assay: biolayer interferometry, AR2G biosensor, antibody as ligand
Procedure: 5D6 and 9E1 were bound to ITIH1 with high affinity, as shown in the table below, and affinity was determined by AbClon Inc. using an AR2G (Bio-Sensor).

| Binder | Kd [nM] | koff [s⁻¹] | kon [M⁻¹ s⁻¹] |
| --- | --- | --- | --- |
| B1 | 0.133 | 4.45e-05 | 334000 |
| B2 | 0.243 | 7.05e-05 | 291000 |
